Molecular target: the molecule itself
Assay: cryo-EM structure; 150 nM biotinylated dynein^E2488Q, 650 nM Lis1, 1.2 mM ATP, 1.2 mM Na3VO4, on streptavidin affinity grids; 4.1 Å map (C2), 3.6 Å after symmetry expansion

B1: S. cerevisiae Lis1 (Pac1) (natural protein)
chain: MTNWQQQLPLTDTQKNELDKSVLRYLNWNYKQTVRHEHAQDYESVRHAIVTLSGFLLQESVDRQEFISNNDTSNESMVDIDELLLPKKWNSIVRLQKKIIELEQNTETLVSQIKDLNTQVSELAQFKPTTSNGTSAHNVLKWIPRNLPSCLINVESSVTSVKLHPNLPIVFVATDHGKLYAFDLFNYTIPLASLQSHTKAITSMDVLFTNYTNSSKKNYLVIVTASKDLQIHVFKWVSEECKFQQIRSLLGHEHIVSAVKIWQKNNDVHIASCSRDQTVKIWDFHNGWSLKTFQPHSQWVRSIDVLGDYIISGSHDTTLRLTHWPSGNGLSVGTGHEFPIEKVKFIHFIEDSPEIRFRTPSTDRYKNWGMQYCVSASRDRTIKIWEIPLPTLMAHRAPIPNPTDSNFRCVLTLKGHLSWVRDISIRGQYLFSCADDKSVRCWDLNTGQCLHVWEKLHTGFVNCLDLDVDFDSNVTPRQMMVTGGLDCKSNVFMR
notes: Lis1 (Pac1), S. cerevisiae; a dimer; only the β-propellers are spoken of in the structure; also called yeast Lis1; source: S. cerevisiae, purified (Ni-NTA, IgG Sepharose, TEV cleavage)
binding result: binds

Reference: article PMC10497415, “Lis1 relieves cytoplasmic dynein-1 autoinhibition by acting as a molecular wedge” (Nature Structural & Molecular Biology, 2023)
